Molecular target: Haloferax volcanii deoxyhypusine synthase (T7-His-DHS) (Haloferax volcanii)
Assay: SEC; Sephacryl S-200 HR gel filtration column equilibrated with buffer A (20 mM Tris-HCl pH 8, 2 M NaCl), flow rate 0.3 mL/min; oligomer size from the estimated molecular weight

- stoichiometry N: 4
Substance: Haloferax volcanii deoxyhypusine synthase (T7-His-DHS) (enzyme)
